In PMC8266384, “A two-site flexible clamp mechanism for RET-GDNF-GFRα1 assembly reveals both conformational adaptation and strict geometric spacing” (Structure(London, England:1993), 2021):
Residue numbers refer to the chain shown, from its start. Names and notes keep the numbering of the source. Values joined by “and” are separate entries in the source; they are usually repeats but may differ in a detail not shown here. Equal entries are not always repeated.

What was measured:
[1] = target: zRET^ECD-zGDNF^mat.-zGFRα1a^D1-3 ternary complex (zRGα1a), 2:2:2 (zebrafish) (UniProt A8E7C6); test: cryo-EM micrographs, particle-pair analysis and 2D class averages; non-crosslinked zRGα1a at 0.1 mg/ml on Quantifoil grids (dataset 3); complex with complex in linear arrays
[2] = target: T1, zebrafish RET extracellular domain (zRET^ECD), A8E7C6; test: MST; conditions: chain shown with the change
T1 chain: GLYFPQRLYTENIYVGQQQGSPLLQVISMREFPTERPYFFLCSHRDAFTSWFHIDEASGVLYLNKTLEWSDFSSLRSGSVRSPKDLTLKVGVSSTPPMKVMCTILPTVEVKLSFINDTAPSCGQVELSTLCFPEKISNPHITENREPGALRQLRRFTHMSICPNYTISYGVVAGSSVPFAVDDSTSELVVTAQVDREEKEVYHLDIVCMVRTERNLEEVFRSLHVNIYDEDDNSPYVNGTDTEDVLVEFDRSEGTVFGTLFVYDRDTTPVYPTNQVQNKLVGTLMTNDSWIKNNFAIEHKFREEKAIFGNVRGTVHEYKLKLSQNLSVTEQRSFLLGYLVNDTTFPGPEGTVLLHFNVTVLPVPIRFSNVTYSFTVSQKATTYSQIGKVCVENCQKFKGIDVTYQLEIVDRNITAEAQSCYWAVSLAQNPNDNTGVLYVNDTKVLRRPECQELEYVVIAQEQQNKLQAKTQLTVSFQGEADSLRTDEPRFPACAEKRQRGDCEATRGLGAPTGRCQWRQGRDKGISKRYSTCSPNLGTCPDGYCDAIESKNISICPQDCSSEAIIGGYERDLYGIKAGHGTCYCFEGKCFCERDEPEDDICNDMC

[3] = target: zebrafish RET extracellular domain (zRET^ECD) (zebrafish) (UniProt A8E7C6); test: MST; zRET^ECD labelled with NHS-RED (50 nM fluorophore) held constant, unlabelled zGFRα1^D1-3-zGDNF^mat. (WT and mutants) in 1:1 serial dilution; 25°C; 20 mM HEPES pH 7.0, 150 mM NaCl, 1 mM CaCl2, 0.05 % Tween-20; quadratic fit, at least three repeats
[4] = target: zRET^ECD with the CLD3-β2-β3 loop truncated to AAG (zRET^ECD_(P291-Q296:AAG)) (zebrafish) (UniProt A8E7C6); test: as above
[5] = target: T2, zGDNF^mat._(Y158A)-zGFRα1a^D1−3WT complex (zebrafish, UniProt Q98TT9 1-353; Q98TU0 135-235, Y158A); test: MST
T2 sequence 1: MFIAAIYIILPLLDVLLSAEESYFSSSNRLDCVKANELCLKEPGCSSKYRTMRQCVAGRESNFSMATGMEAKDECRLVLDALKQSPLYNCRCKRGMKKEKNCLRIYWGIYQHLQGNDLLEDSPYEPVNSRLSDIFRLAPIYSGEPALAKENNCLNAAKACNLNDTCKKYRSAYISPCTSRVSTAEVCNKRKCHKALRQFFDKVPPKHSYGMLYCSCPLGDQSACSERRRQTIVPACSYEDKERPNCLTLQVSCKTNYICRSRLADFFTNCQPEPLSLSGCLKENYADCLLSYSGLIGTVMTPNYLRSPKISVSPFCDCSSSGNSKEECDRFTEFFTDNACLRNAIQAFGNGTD
T2 sequence 2: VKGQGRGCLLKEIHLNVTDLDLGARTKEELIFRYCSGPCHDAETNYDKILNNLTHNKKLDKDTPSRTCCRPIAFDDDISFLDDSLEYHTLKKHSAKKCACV

[6] = target: the molecule itself; test: cryo-EM structure; reconstituted zRGα1a complex crosslinked by GraFix (glutaraldehyde), 0.1 mg/ml; 20 mM Tris pH 7.0, 150 mM NaCl, 1 mM CaCl2; untilted and 30° tilted datasets

zRET^ECD-zGDNF^mat.-zGFRα1a^D1-3 ternary complex (zRGα1a), 2:2:2 (from UniProt A8E7C6 1-626; Q98TT9 1-353; Q98TU0 135-235)
stoichiometry N [1]: 2 and 4

B1: zGDNF^mat.-zGFRα1a^D1-3 complex (2:2), wild type, Q98TT9;Q98TU0 N323A (protein)
chain 1: T2 sequence 1 with N323A
chain 2: T2 sequence 2 with A24Y
Kd ([2]; fluorescently labeled zRETECD, minimum of n = 3 repeats): 88 nM

B2: zGDNF^mat.-zGFRα1a^D1-3 complex (2:2), wild type, Q98TT9;Q98TU0 L156A (protein)
chain 1: T2 sequence 1
chain 2: T2 sequence 2 with L22A, A24Y
Kd [2]: 88 nM

B3: zGDNF^mat.-zGFRα1a^D1-3 complex (2:2), wild type (complex)
chain 1: T2 sequence 1
chain 2: T2 sequence 2 with A24Y
Kd [3]: 90 nM
Kd [4]: 18 nM

B4: zGDNF^mat.WT-zGFR1α1a^D1−3_(E326A,E327A) complex (complex)
chain 1: T2 sequence 1 with E326A, E327A
chain 2: T2 sequence 2 with A24Y
Kd [3]: 170 nM

B5: zGDNFwt-zGFR1α1a^D1−3_(N323A,E326A,E327A) complex (complex)
chain 1: T2 sequence 1 with N323A, E326A, E327A
chain 2: T2 sequence 2 with A24Y
Kd [3]: 2350 nM

B6: zGDNF^mat._(Y158A)-zGFRα1a^D1−3WT complex (complex)
chain 1: T2 sequence 1
chain 2: T2 sequence 2
fold decrease in affinity against the wild type [3]: 2 fold

B7: zebrafish RET extracellular domain (zRET^ECD) (domain or fragment)
chain: T1 chain
modifications: NHS-RED 2nd generation dye (amine reactive) in the MST only
Kd [5]: 173 nM

B8: zebrafish GDNF, N-terminally truncated (zGDNF^mat.) (ligand, UniProt Q98TU0 135-235, looked up)
chain: T2 sequence 2 with A24Y
notes: One protomer; it stands as a dimer in the complexes; also called GDNF1; not shown: Protein A, C-terminal, cleaved
stoichiometry N [6]: 2
